Data on one substance can be found in patent US20090092581A1.

Assay [1] addresses Cynomolgus interferon alpha 2 (SEQ ID NO: 66), purified from inclusion bodies after expression in E. coli (Cynomolgus (Macaca fascicularis)). As to the kind of experiment: sandwich ELISA kit PBL #41100-1; signal relative to human IFN-α2 (FIG. 3). Background: An ELISA detects its analyte on a solid surface through an enzyme-linked reagent.
The target of assay [2] is Rhesus interferon alpha 2 (Rhesus) (UniProt B6CK11). Described as above.
Sequence of UniProt B6CK11 (B6CK11 entry or part of it): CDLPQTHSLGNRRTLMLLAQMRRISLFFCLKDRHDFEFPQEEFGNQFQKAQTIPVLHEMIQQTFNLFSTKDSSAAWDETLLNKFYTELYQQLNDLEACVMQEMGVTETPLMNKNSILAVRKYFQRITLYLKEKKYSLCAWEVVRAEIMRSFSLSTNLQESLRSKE
For assay [3], the target named is Cynomolgus IFN-α protein SEQ ID 42, expressed in Vero tissue culture supernatant (Cynomolgus (Macaca fascicularis)). The assay can be described thus: ELISA kit PBL #41100 (head prints 41110) on Vero supernatant; read against human IFN-α2a standard curve; unit not given.
Assay [4] deals with Cynomolgus IFN-α protein SEQ ID 46, expressed in Vero tissue culture supernatant (Cynomolgus (Macaca fascicularis)). Described as above.
Assay [5] has as its target Cynomolgus IFN-α protein SEQ ID 50, expressed in Vero tissue culture supernatant (Cynomolgus (Macaca fascicularis)). Described as above.
The target in assay [6] is Cynomolgus IFN-α protein SEQ ID 54, expressed in Vero tissue culture supernatant (Cynomolgus (Macaca fascicularis)). The description is as above.
For assay [7], the target named is Cynomolgus IFN-α protein SEQ ID 56, expressed in Vero tissue culture supernatant (Cynomolgus (Macaca fascicularis)). The description is as above.
In assay [8] the target is Cynomolgus IFN-α protein SEQ ID 58, expressed in Vero tissue culture supernatant (Cynomolgus (Macaca fascicularis)). The description is as above.
The target in assay [9] is Cynomolgus IFN-α protein SEQ ID 60, expressed in Vero tissue culture supernatant (Cynomolgus (Macaca fascicularis)). The assay is described as above.
Assay [10] deals with Cynomolgus IFN-α protein SEQ ID 62, expressed in Vero tissue culture supernatant (Cynomolgus (Macaca fascicularis)). The description is as above.
Assay [11] addresses Cynomolgus IFN-α protein SEQ ID 66, expressed in Vero tissue culture supernatant (Cynomolgus (Macaca fascicularis)). Described as above.

Take “Human IFN-α ELISA kit, PBL Biomedical Laboratories Product #41100-1 (kit antibodies) (antibody)”: the specific ELISA signal compared to human IFN-α2 in assay [1] and in [2] was 10% each time. The ELISA estimate of IFN-α protein level in tissue culture supernatant in assay [3] is 0; in assay [4], 0; in assay [5], 296; in [6], 11; in [7] it was 0; in [8] it was 66. For the same substance, the ELISA estimate of IFN-α protein level in tissue culture supernatant in assay [9] was 0; in assay [10] it was 0; in [11] it was 184.
